Data from the supplement of paper PMC10567573.

B1: ZNF263 (parent)
chain: FAHSSNLLRHQRIHTGERPYKCPE

Variants of: B1
Assay: protein stability index of a GFP-peptide fusion (GPS, HEK-293T) (PSI 1-6); higher = more stable
Settings: c terminus: a fixed tail appended
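Also: lentivirally expressed fusions sorted by FACS into six bins by GFP to DsRed ratio, PSI derived from sequencing read proportions per bin multiplied by bin number.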

Protein stability index, by site and new letter:
G16: C 2.36; Q 2.01; F 1.37; L 2.07; K 2.23; T 2.56; R 1.57; N 2.43; Y 1.93; D 2.77; V 2.1; H 2.02; S 1.97; E 2.67; A 2.37; M 1.88; W 1.32; P 2.37; I 2.22
R18: D 3.28; K 2.09; A 2.68; I 2.21; L 2.39; F 2.16; G 2.54; S 2.35; M 2.2; T 2.27; Q 2.36; N 2.45; H 2.52; C 2.23; W 2.66; E 3.36; P 2.45; V 2.46
H10: I 1.81; Y 2.51; E 2.77; R 1.8; P 2.82; V 1.79; M 1.91; S 1.95; G 2.44; D 3.13; W 1.8; L 1.94; K 1.73; F 1.69; N 2.38; T 2.2; Q 2.37
R12: L 2.44; Q 3.09; N 2.84; Y 2.1; V 2.73; K 2.56; F 2.17; W 1.87; D 3.3; H 3.01; E 2.95; S 2.8; G 2.72; M 2.52; C 2.54; T 2.48; P 2.38; I 2.33; A 2.91
Q11: C 3.7; H 2.5; V 2.14; G 2.18; D 2.98; N 3.13; E 2.56; R 2.2; P 1.79; I 1.31; K 2.03; S 1.98; Y 2.49; F 1.48; A 1.61; T 2.28; M 1.84; L 1.69
I13: M 2.12; T 2.82; L 2.07; D 3.09; Y 2.43; H 2.77; F 2.14; N 2.99; K 2.68; P 3.22; S 2.68; Q 2.83; R 2.39; C 2.46; E 3.23; A 2.85; G 2.91; W 1.99; V 2.13
T15: L 2.36; R 2.5; E 2.24; H 2.12; V 2.68; K 1.99; M 2.36; P 1.87; F 2.58; C 1.95; Q 2.19; Y 2.23; G 2.19; S 2.65; N 2.36; W 1.6; D 2.56; A 1.97; I 2.29
H14: L 2.57; C 3.21; N 2.71; Y 1.9; R 2.18; F 2.16; Q 2.98; G 2.59; S 2.46; T 1.91; V 2.34; I 2.57; M 3; W 3.6; P 3.05; K 2.08; D 2.81; E 2.73; A 2.99
E17: P 2.63; V 2.44; Y 1.47; M 1.98; R 1.95; S 2.29; K 1.44; W 2.16; G 1.81; L 2.04; T 2.19; N 1.8; D 1.91; I 2.29; Q 2.86; F 1.95; C 1.65; H 2.47; A 2.31
